B1: GST-Nav1.2 1,080–1,203 (domain or fragment, UniProt P04775 1080-1203, looked up)
chain: SSVEKYVVDESDYMSFINNPSLTVTVPIALGESDFENLNTEEFSSESDMEESKEKLNATSSSEGSTVDIGAPAEGEQPEAEPEESLEPEACFTEDCVRKFKCCQISIEEGKGKLWWNLRKTCYK
B2: GST-Nav1.2 989–1,133 (domain or fragment, UniProt P04775 989-1133, looked up)
chain: DNLAATDDDNEMNNLQIAVGRMQKGIDFVKRKIREFIQKAFVRKQKALDEIKPLEDLNNKKDSCISNHTTIEIGKDLNYLKDGNGTTSGIGSSVEKYVVDESDYMSFINNPSLTVTVPIALGESDFENLNTEEFSSESDMEESKE

What was measured:
[1] = biological target: ankyrin B (MBD-ankB) membrane-binding domain, 1–957 (UniProt Q01484); test: SPR, GST-Nav1.2 captured on chip; conditions: reference: untreated immobilized fragment; sites S1112,S1123,S1124,S1126
[2] = biological target: ankyrin G (MBD-ankG) membrane-binding domain, 1–981 (UniProt O70511); test: SPR, GST-Nav1.2 captured on chip; conditions: reference: untreated immobilized fragment; sites S1112,S1123,S1124,S1126
[3] = biological target: MBD-ank (Table II; ankB or ankG not said) membrane-binding domain; test: SPR, GST-Nav1.2 captured on chip; conditions: reference: wild type, CK2-treated; sites S1124,S1126
[4] = biological target: T1, MBD-ankG (membrane-binding domain of rat 270-kD ankyrin G, amino acids 1–981) (rat, UniProt O70511 1-981); test: SPR
T1 sequence (looked up): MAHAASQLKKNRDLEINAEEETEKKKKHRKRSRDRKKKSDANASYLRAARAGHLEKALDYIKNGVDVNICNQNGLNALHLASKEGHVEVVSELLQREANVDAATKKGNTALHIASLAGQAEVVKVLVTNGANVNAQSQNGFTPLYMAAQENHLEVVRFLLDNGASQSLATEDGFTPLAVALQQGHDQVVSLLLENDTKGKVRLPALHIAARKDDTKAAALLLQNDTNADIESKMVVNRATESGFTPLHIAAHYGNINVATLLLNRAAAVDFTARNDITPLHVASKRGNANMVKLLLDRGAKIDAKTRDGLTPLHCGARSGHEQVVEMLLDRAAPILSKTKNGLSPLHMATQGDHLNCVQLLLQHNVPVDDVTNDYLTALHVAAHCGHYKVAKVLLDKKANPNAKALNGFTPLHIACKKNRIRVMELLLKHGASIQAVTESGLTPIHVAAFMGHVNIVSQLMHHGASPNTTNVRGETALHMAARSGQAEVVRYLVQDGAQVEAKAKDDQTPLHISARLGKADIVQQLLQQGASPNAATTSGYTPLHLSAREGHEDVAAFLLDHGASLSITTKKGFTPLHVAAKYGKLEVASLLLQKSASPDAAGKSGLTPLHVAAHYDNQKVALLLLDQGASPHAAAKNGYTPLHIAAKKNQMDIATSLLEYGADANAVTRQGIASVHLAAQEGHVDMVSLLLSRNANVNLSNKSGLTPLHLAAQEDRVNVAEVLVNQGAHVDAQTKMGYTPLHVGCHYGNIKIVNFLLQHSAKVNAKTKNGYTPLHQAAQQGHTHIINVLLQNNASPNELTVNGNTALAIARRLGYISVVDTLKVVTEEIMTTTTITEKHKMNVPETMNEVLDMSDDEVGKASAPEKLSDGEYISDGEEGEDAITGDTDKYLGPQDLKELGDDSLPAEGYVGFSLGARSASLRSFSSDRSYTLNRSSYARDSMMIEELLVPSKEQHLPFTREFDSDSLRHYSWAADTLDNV

[5] = biological target: T2, MBD-ankB (membrane-binding domain of human 220-kD ankyrin B, amino acids 1–957) (human, UniProt Q01484-2 1-957); test: SPR
T2 sequence (looked up): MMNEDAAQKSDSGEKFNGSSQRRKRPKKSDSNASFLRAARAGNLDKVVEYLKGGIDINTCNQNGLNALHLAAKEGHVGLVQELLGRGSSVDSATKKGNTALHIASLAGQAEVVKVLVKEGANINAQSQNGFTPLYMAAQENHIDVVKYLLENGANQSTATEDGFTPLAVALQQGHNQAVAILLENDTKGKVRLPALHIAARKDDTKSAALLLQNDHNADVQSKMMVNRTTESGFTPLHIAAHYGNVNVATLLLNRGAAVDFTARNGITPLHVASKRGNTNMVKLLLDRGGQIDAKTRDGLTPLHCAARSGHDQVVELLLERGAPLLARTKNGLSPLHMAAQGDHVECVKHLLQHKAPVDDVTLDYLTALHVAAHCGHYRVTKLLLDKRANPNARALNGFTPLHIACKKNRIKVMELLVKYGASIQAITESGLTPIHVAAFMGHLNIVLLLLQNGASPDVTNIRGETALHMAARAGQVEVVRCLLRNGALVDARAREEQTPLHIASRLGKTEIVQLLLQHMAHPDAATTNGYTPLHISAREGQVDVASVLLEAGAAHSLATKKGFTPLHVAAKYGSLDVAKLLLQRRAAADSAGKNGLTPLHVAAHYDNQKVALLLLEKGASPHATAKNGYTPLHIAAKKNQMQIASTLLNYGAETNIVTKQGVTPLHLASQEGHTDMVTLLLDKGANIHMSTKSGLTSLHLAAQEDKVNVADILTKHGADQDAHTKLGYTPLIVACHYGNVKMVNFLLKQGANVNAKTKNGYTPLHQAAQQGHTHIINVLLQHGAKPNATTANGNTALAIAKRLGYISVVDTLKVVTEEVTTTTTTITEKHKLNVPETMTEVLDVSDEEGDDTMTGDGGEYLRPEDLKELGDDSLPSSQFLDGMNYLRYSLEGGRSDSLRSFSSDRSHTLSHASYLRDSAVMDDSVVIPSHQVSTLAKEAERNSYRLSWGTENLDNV

Molecule	KD [1]	Kd [5] [nM]	other results
Nav1.2 989–1,133 (from UniProt P04775) phosphorylated on chip with CK2	stronger; reference 1.3 ± 0.2 × 10−6	–	–
Nav1.2 1,080–1,203 (from UniProt P04775) phosphorylated on chip with CK2	stronger; reference 1.2 ± 0.4 × 10−6	–	KD [2]: stronger; reference 1.7 ± 0.5 × 10−6
Nav1.2 1,080–1,203 (from UniProt P04775) S1124-26A, CK2-treated	–	–	KD [3]: weaker; reference 1.2 10−9
B1	–	1200	Kd [4]: 1700 nM
B2	–	1300	–

— PMC2600743 (The Journal of Cell Biology, 2008)
